According to patent US20120316071A1 (published 2012):

How the values were obtained:
[1] = biological target: T1, rHuman EGF R/Fc Chimera, CF (R&D Systems Cat#344-ER) (human, UniProt P00533 25-645); assay: MSD multispot ECL, antigen spotted on plate, Fab in solution; blank spot of this row 338
T1 construct: Bought recombinant protein; Fc part of the bought chimera not given

[2] = biological target: T2, rHuman HGF R/c-MET/Fc Chimera, CF (R&D Systems Cat#358-MT/CF) (human, UniProt P08581 25-932); assay: as above
T2 construct: Bought recombinant protein; also called HGF R/Fc; Fc part of the bought chimera not given

[3] = biological target: T3, Recombinant Human DLL4 (R&D Systems Cat#1506-D4/CF) (human, UniProt Q9NR61 27-524); assay: as above
T3 construct: Bought recombinant protein; also called delta-like protein 4; rHuman DLL4

[4] = biological target: T4, rHuman ErbB2/Fc Chimera, CF (R&D Systems Cat#1129-ER) (human, UniProt P04626 23-652); assay: as above
T4 construct: Bought recombinant protein; Fc part of the bought chimera not given

[5] = biological target: T5, rHuman IGF-1 sR (insulin-like growth factor-1 soluble receptor), CF (R&D Systems Cat#391-GR) (human, UniProt P08069 31-932); assay: as above
T5 construct: Bought recombinant soluble receptor; The column head prints only 'IGF-1'

[6] = biological target: T6, rHuman P-Cadherin/Fc Chimera, CF (R&D Systems Cat#861-PC) (human, UniProt P22223 108-654); assay: as above
T6 construct: Bought recombinant protein; Fc part of the bought chimera not given

[7] = biological target: T1, rHuman EGF R/Fc Chimera, CF (R&D …); assay: MSD multispot ECL, antigen spotted on plate, Fab in solution; blank spot of this row 254
[8] = biological target: T2, rHuman HGF R/c-MET/Fc Chimera, CF (R&D …); assay: as above
[9] = biological target: T3, Recombinant Human DLL4 (R&D Systems …); assay: as above
[10] = biological target: T4, rHuman ErbB2/Fc Chimera, CF (R&D …); assay: as above
[11] = biological target: T5, rHuman IGF-1 sR (insulin-like growth …); assay: as above
[12] = biological target: T6, rHuman P-Cadherin/Fc Chimera, CF (R&D …); assay: as above
[13] = biological target: T1, rHuman EGF R/Fc Chimera, CF (R&D …); assay: MSD multispot ECL, antigen spotted on plate, Fab in solution; blank spot of this row 184
[14] = biological target: T2, rHuman HGF R/c-MET/Fc Chimera, CF (R&D …); assay: as above
[15] = biological target: T3, Recombinant Human DLL4 (R&D Systems …); assay: as above
[16] = biological target: T4, rHuman ErbB2/Fc Chimera, CF (R&D …); assay: as above
[17] = biological target: T5, rHuman IGF-1 sR (insulin-like growth …); assay: as above
[18] = biological target: T6, rHuman P-Cadherin/Fc Chimera, CF (R&D …); assay: as above
[19] = biological target: T1, rHuman EGF R/Fc Chimera, CF (R&D …); assay: MSD multispot ECL, antigen spotted on plate, Fab in solution; blank spot of this row 407
[20] = biological target: T2, rHuman HGF R/c-MET/Fc Chimera, CF (R&D …); assay: as above
[21] = biological target: T3, Recombinant Human DLL4 (R&D Systems …); assay: as above
[22] = biological target: T4, rHuman ErbB2/Fc Chimera, CF (R&D …); assay: as above
[23] = biological target: T5, rHuman IGF-1 sR (insulin-like growth …); assay: as above
[24] = biological target: T6, rHuman P-Cadherin/Fc Chimera, CF (R&D …); assay: as above
[25] = biological target: T7, Recombinant Human DLL4 (delta-like protein 4) (human, UniProt Q9NR61 27-524); assay: SPR, Fab on recombinant human DLL4; two-site binding, this site 10% by the footnote
T7 construct: Bought recombinant human DLL4 (R&D Systems Cat#1506-D4/CF); also called rHuman DLL4; Delta-like ligand 4

[26] = biological target: T7, Recombinant Human DLL4 (delta-like …); assay: SPR, Fab on recombinant human DLL4
[27] = biological target: T7, Recombinant Human DLL4 (delta-like …); assay: SPR, Fab on recombinant human DLL4; two-site binding, this site 89% by the footnote
[28] = biological target: T8, Recombinant Human DLL4 (R&D Systems Cat#1506-D4/CF) (human, UniProt Q9NR61 27-524); assay: MSD Multispot ECL, antigen spotted on plate, Fab in solution; blank spot of the row 373
T8 construct: Bought recombinant protein; also called delta-like protein 4; Delta-like 4

[29] = biological target: T9, rHuman Erythropoietin R/Fc Chimera, CF (R&D Systems Cat#963-ER) (human, UniProt P19235 25-250); assay: as above
T9 construct: Bought recombinant Fc chimera; also called EPO R; EPO R/Fc; Fc part of the bought chimera not given
T9 sequence (looked up): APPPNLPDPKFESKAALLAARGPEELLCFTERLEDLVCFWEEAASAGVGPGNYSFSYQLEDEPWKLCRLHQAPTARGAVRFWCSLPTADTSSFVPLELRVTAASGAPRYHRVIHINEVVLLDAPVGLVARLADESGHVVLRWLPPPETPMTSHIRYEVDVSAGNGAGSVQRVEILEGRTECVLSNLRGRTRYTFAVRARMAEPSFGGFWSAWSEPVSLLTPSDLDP

[30] = biological target: T10, rHuman HGF R/c-MET/Fc Chimera, CF (R&D Systems Cat#358-MT/CF) (human, UniProt P08581 25-932); assay: as above
T10 construct: Bought recombinant Fc chimera; also called HGF R/Fc; hepatocyte growth factor receptor; Fc part of the bought chimera not given

[31] = biological target: T11, rHuman EGF R/Fc Chimera, CF (R&D Systems Cat#344-ER) (human, UniProt P00533 25-645); assay: as above
T11 construct: Bought recombinant Fc chimera; also called epidermal growth factor receptor; Fc part of the bought chimera not given

[32] = biological target: T12, rHuman P-Cadherin/Fc Chimera, CF (R&D Systems Cat#861-PC) (human, UniProt P22223 108-654); assay: as above
T12 construct: Bought recombinant Fc chimera; Fc part of the bought chimera not given

[33] = biological target: T13, rHuman CD44/Fc Chimera, CF (R&D Systems Cat#3660-CD) (human, UniProt P16070 21-220); assay: as above
T13 construct: Bought recombinant Fc chimera; Fc part of the bought chimera not given

[34] = biological target: T14, rHuman Notch-1/Fc Chimera, CF (R&D Systems Cat#3647-TK) (human, UniProt P46531 19-526); assay: as above
T14 construct: Bought recombinant Fc chimera; Fc part of the bought chimera not given

B1: Fab VH1-46_IGHD6-6*01_IGHJ1*01 S102A/S103P/S104F/H111F (H:APFF) & L6_IGKJ1*01 (Fab, V domains shown)
VH: QVQLVQSGAEVKKPGASVKVSCKASGYTFTSYYMHWVRQAPGQGLEWMGIINPSGGSTSYAQKFQGRVTMTRDTSTSTVYMELSSLRSEDTAVYYCAREEYAPFSAEYFQFWGQGTLVTVSS
VL: not shown
notes: Fab expressed in E. coli from plasmid A (CH1, His6 and Flag tags) and plasmid C (kappa CL); also called wildtype (light chain); H:APFF & L:wt
With B1 the ECL signal [1] was 425, the ECL signal [2] was 332 and the ECL signal [3] was 149000. The ECL signal [4] was 379, the ECL signal [5] was 468 and the ECL signal [6] was 399. It also gave an ECL signal [7] of 209, an ECL signal [8] of 176 and an ECL signal [9] of 148000. The ECL signal [10] was 351, the ECL signal [11] was 306 and the ECL signal [12] was 138. The ECL signal [13] was 409, the ECL signal [14] was 263 and the ECL signal [15] was 132000. It also gave an ECL signal [16] of 322, an ECL signal [17] of 173 and an ECL signal [18] of 240. The ECL signal [19] was 329, the ECL signal [20] was 237 and the ECL signal [21] was 126000. It also gave an ECL signal [22] of 292, an ECL signal [23] of 357 and an ECL signal [24] of 277.

B2: Fab VH1-46_IGHD6-6*01_IGHJ1*01 S102A/S103P/S104F/H111F (APFF) & L6_IGKJ1*01 S28N/S30D/S31H (NDH) (Fab, V domains shown)
VH: B1 VH
VL: EIVLTQSPATLSLSPGERATLSCRASQNVDHYLAWYQQKPGQAPRLLIYDASNRATGIPARFSGSGSGTDFTLTISSLEPEDFAVYYCQQRSNWPPWTFGQGTKVEIKR
notes: Fab with CH1 (Plasmid A, His6 and Flag tags) and kappa CL (Plasmid C); Some paragraphs print S28D/S30N/S31H for the same NDH chain; also called H:APFF & L:NDH; APFF-NDH
B2 showed a Kd [25] of 14 nM, a koff [26] of 0.0689 s⁻¹ and a kon [26] of 444000 M⁻¹ s⁻¹. It also gave a Kd [27] of 155 nM.

B3: Fab VH5-51_IGHD5-18*01>3_IGHJ4*01 G100K/G104T G24A & V3-4_IGLJ1*01 (Fab, V domains shown)
VH: EVQLVQSGAEVKKPGESLKISCKASGYSFTSYWIGWVRQMPGKGLEWMGIIYPGDSDTRYSPSFQGQVTISADKSISTAYLQWSSLKASDTAMYYCARRKYSYTYDYFDYWGQGTLVTVSS
VL: QTVVTQEPSFSVSPGGTVTLTCGLSSGSVSTSYYPSWYQQTPGQAPRTLIYSTNTRSSGVPDRFSGSILGNKAALTITGAQADDESDYYCVLYMGSGISYVFGTGTKVTVL
notes: Fab made in E. coli; VH cloned into Plasmid A (CH1, His6 and Flag tags), lambda VL into Plasmid E (lambda CL); also called KT G24A
In the case of B3, the ECL signal [28] is reported as 45500, the ECL signal [29] is reported as 551 and the ECL signal [30] is reported as 803. The ECL signal [31] was 757, the ECL signal [32] was 212 and the ECL signal [33] was 547. The ECL signal [34] was 493.
